# From US7897371B2, “Activation of mutated RAC-PK” (Novartis AG, priority 1995, dated 2011)
# “And” between values parts separate entries of the source, which are not always exact repeats. Equal entries are not always repeated. Where two headings read alike, the source gives them in different places. No end group written: not given here.
# B1: MBP: myelin basic protein, kinase assay substrate (protein, UniProt P02687 1-169, looked up)
# Myelin basic protein: AAQKRPSQRSKYLASASTMDHARHGFLPRHRDTGILDSLGRFFGSDRGAPKRGSGKDGHHAARTTHYGSLPQKAQGHRPQDENPVVHFFKNIVTPRTPPPSQGKGRGLSLSRFSWGAEGQKPGFGYGGRASDYKSAHKGLKGHDAQGTLSKIFKLGGRDSRSGSPMARR
# Experiments:
# RAC-PK = RAC-PK activity immunoprecipitated from Swiss 3T3 cells (MBP substrate); assay type: cell-based; conditions: for Increase in RAC-PK activity: Swiss 3T3 cells, 1 μM okadaic acid, 0.1 mM vanadate, insulin or 10% FCS
# RAC-PKα [1] = target: RAC-PKα (Homo sapiens, UniProt P31749)
# Sequence of RAC-PKα (Homo sapiens, UniProt P31749) (P31749 whole entry): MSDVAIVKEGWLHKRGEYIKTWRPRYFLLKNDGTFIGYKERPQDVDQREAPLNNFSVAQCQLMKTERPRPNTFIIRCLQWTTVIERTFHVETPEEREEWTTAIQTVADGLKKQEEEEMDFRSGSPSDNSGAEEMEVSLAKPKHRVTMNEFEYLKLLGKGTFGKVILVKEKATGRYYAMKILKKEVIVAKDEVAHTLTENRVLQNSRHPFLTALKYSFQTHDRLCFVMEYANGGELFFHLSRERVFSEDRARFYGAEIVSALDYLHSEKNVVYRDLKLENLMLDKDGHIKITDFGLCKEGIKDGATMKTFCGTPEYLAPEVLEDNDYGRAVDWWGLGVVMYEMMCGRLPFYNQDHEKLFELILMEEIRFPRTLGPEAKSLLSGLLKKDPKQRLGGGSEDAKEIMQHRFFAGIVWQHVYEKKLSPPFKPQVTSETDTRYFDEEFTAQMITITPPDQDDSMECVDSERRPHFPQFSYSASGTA
# GSK3β = assay type: cell-based, human
# Sequence of GSK3β (P49841 whole entry): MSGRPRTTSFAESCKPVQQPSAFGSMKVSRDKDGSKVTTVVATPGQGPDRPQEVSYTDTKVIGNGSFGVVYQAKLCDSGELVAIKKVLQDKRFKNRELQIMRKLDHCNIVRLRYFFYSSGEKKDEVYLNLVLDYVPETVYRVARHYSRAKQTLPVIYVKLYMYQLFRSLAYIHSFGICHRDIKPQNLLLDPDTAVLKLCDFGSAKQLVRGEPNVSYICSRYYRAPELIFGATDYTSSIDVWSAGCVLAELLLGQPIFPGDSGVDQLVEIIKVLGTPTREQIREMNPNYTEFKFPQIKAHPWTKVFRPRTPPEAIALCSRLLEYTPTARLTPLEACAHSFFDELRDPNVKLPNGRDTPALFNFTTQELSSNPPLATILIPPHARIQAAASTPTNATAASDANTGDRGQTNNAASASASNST
# RAC-PKα [2] = assay type: cell-based, human
# p70 S6 kinase = target: T1, p70 S6 kinase (Rattus norvegicus, UniProt P67999); conditions: cited from earlier work; for Km: read-out: Km for phosphorylation by p70 S6 kinase
# T1 construct: from tissue; host or cells: rat liver
# T1 sequence (P67999 24-525): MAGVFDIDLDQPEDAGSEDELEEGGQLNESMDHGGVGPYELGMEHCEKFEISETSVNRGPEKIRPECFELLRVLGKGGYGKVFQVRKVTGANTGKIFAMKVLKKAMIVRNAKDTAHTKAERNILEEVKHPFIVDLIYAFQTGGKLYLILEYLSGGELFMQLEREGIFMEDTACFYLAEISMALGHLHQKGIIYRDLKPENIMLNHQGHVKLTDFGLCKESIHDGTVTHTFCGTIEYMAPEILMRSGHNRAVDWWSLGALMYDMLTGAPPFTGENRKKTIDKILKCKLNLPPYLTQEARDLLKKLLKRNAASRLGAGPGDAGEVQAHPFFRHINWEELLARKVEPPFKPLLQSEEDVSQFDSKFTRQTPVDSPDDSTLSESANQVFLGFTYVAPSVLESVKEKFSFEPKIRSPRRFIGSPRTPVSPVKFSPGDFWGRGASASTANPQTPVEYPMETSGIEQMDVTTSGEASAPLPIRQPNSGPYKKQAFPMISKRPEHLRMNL
# MAPKAP kinase-1 = conditions: cited from earlier work
# [3] = test system: C[C@H](NC(=O)[C@H](C)NC(=O)[C@H](CCCNC(=N)N)NC(=O)[C@@H]1CCCN1C(=O)[C@@H](N)CCCNC(=N)N)C(=O)N[C@H](C(=O)N[C@@H](Cc1ccccc1)C(=O)O)[C@@H](C)O; assay: purified protein, by the assay type; conditions: pH 7.5; 30.0 °C
# [4] = test system: C[C@H](NC(=O)[C@H](Cc1ccccc1)NC(=O)[C@H](CO)NC(=O)[C@H](CO)NC(=O)[C@@H](NC(=O)[C@H](CCCNC(=N)N)NC(=O)[C@H](C)NC(=O)[C@H](CCCNC(=N)N)NC(=O)CN)[C@@H](C)O)C(=O)O; assay: purified protein, by the assay type; conditions: other: phosphorylation by RAC-PKα; pH 7.5; 30.0 °C
# [5] = test system: C[C@H](NC(=O)[C@H](CO)NC(=O)[C@H](CO)NC(=O)[C@@H](NC(=O)[C@H](CCCNC(=N)N)NC(=O)[C@@H]1CCCN1C(=O)[C@@H](N)CCCNC(=N)N)[C@@H](C)O)C(=O)O; assay: purified protein, by the assay type; conditions: other: phosphorylation by RAC-PKα; pH 7.5; 30.0 °C
# [6] = test system: C[C@H](NC(=O)CNC(=O)[C@H](CCCNC(=N)N)NC(=O)[C@@H]1CCCN1C(=O)[C@@H](N)CCCNC(=N)N)C(=O)N[C@@H](CO)C(=O)N[C@@H](Cc1ccccc1)C(=O)O; assay: purified protein, by the assay type; conditions: other: phosphorylation by RAC-PKα; pH 7.5; 30.0 °C
# [7] = test system: CC(C)[C@H](NC(=O)[C@H](CO)NC(=O)[C@H](CO)NC(=O)[C@@H](NC(=O)[C@H](CCCNC(=N)N)NC(=O)[C@@H]1CCCN1C(=O)[C@@H](N)CCCNC(=N)N)[C@@H](C)O)C(=O)O; assay: purified protein, by the assay type; conditions: other: phosphorylation by RAC-PKα; pH 7.5; 30.0 °C
# [8] = test system: C[C@@H](O)[C@H](NC(=O)[C@H](CCCNC(=N)N)NC(=O)[C@@H]1CCCN1C(=O)[C@@H](N)CCCNC(=N)N)C(=O)N[C@@H](CO)C(=O)N[C@@H](CO)C(=O)N[C@@H](CCCCN)C(=O)O; assay: purified protein, by the assay type; conditions: other: phosphorylation by RAC-PKα; pH 7.5; 30.0 °C
# [9] = test system: C[C@@H](O)[C@H](NC(=O)[C@H](CCCNC(=N)N)NC(=O)[C@@H]1CCCN1C(=O)[C@@H](N)CCCNC(=N)N)C(=O)NCC(=O)N[C@@H](CO)C(=O)N[C@@H](Cc1ccccc1)C(=O)O; assay: purified protein, by the assay type; conditions: other: phosphorylation by RAC-PKα; pH 7.5; 30.0 °C
# [10] = test system: C[C@H](NC(=O)[C@H](C)NC(=O)[C@H](CCCNC(=N)N)NC(=O)[C@@H]1CCCN1C(=O)[C@@H](N)CCCNC(=N)N)C(=O)N[C@@H](CO)C(=O)N[C@@H](Cc1ccccc1)C(=O)O; assay: purified protein, by the assay type; conditions: other: phosphorylation by RAC-PKα; pH 7.5; 30.0 °C
# [11] = test system: C[C@@H](O)[C@H](NC(=O)[C@H](CCCNC(=N)N)NC(=O)[C@@H]1CCCN1C(=O)[C@@H](N)CCCNC(=N)N)C(=O)N[C@@H](CC(N)=O)C(=O)N[C@@H](CO)C(=O)N[C@@H](Cc1ccccc1)C(=O)O; assay: purified protein, by the assay type; conditions: other: phosphorylation by RAC-PKα; pH 7.5; 30.0 °C
# [12] = test system: N=C(N)NCCC[C@H](NC(=O)[C@@H]1CCCN1C(=O)[C@@H](N)CCCNC(=N)N)C(=O)NCC(=O)N[C@@H](CO)C(=O)N[C@@H](CO)C(=O)N[C@@H](Cc1ccccc1)C(=O)O; assay: purified protein, by the assay type; conditions: other: phosphorylation by RAC-PKα; pH 7.5; 30.0 °C
# [13] = test system: CC(C)[C@H](NC(=O)[C@H](CCCNC(=N)N)NC(=O)[C@@H]1CCCN1C(=O)[C@@H](N)CCCNC(=N)N)C(=O)N[C@@H](CO)C(=O)N[C@@H](CO)C(=O)N[C@@H](Cc1ccccc1)C(=O)O; assay: purified protein, by the assay type; conditions: other: phosphorylation by RAC-PKα; pH 7.5; 30.0 °C
# [14] = test system: CC(C)C[C@H](NC(=O)[C@H](CO)NC(=O)[C@H](CO)NC(=O)[C@@H](NC(=O)[C@H](CCCNC(=N)N)NC(=O)[C@@H]1CCCN1C(=O)[C@@H](N)CCCNC(=N)N)[C@@H](C)O)C(=O)O; assay: purified protein, by the assay type; conditions: other: phosphorylation by RAC-PKα; pH 7.5; 30.0 °C
# [15] = test system: CC(C)[C@H](NC(=O)[C@@H](NC(=O)[C@H](CCCNC(=N)N)NC(=O)[C@@H]1CCCN1C(=O)[C@@H](N)CCCNC(=N)N)[C@@H](C)O)C(=O)N[C@@H](CO)C(=O)N[C@@H](Cc1ccccc1)C(=O)O; assay: purified protein, by the assay type; conditions: other: phosphorylation by RAC-PKα; pH 7.5; 30.0 °C
# [16] = test system: C[C@H](NC(=O)[C@H](Cc1ccccc1)NC(=O)[C@H](CO)NC(=O)[C@H](CO)NC(=O)[C@@H](NC(=O)[C@H](CCCNC(=N)N)NC(=O)[C@@H]1CCCN1C(=O)[C@@H](N)CCCNC(=N)N)[C@@H](C)O)C(=O)O; assay: purified protein, by the assay type; conditions: other: phosphorylation by RAC-PKα; pH 7.5; 30.0 °C
# [17] = test system: C[C@H](NC(=O)[C@H](CCCNC(=N)N)NC(=O)[C@@H]1CCCN1C(=O)[C@@H](N)CCCNC(=N)N)C(=O)NCC(=O)N[C@@H](CO)C(=O)N[C@@H](Cc1ccccc1)C(=O)O; assay: purified protein, by the assay type; conditions: other: phosphorylation by RAC-PKα; pH 7.5; 30.0 °C
# [18] = test system: C[C@@H](O)[C@H](NC(=O)[C@H](CCCNC(=N)N)NC(=O)[C@@H]1CCCN1C(=O)[C@H](CCCNC(=N)N)NC(=O)CN)C(=O)N[C@@H](CO)C(=O)N[C@@H](CO)C(=O)N[C@@H](Cc1ccccc1)C(=O)O; assay: purified protein, by the assay type; conditions: other: phosphorylation by RAC-PKα; pH 7.5; 30.0 °C
# GSK3 = assay type: cell-based
# RAC-PKα [19] = test system: RAC-PKα
# [20] = values marked *: data reported previously
molecule,measurement,setting,value
C=C1[C@@H](O)[C@@H]2O[C@]3(CC[C@H](/C=C/[C@@H](C)[C@@H]4CC(C)=C[C@@]5(O[C@H](C[C@@](C)(O)C(=O)O)CC[C@H]5O)O4)O3)CC[C@H]2O[C@@H]1[C@@H](O)C[C@H](C)[C@H]1O[C@@]2(CCCCO2)CC[C@H]1C [okadaic acid],Activation of RAC-PK,"RAC-PK; Swiss 3T3, simultaneous 1 μM okadaic acid and 10% serum",5 fold
same,Increase in RAC-PK activity,RAC-PK,3 fold
[O]=[V]([O-])([O-])[O-] [vanadate],Increase in RAC-PK activity,RAC-PK,11 fold
GRPRTSSFAEG,Km,RAC-PKα [1]; phosphorylation by RAC-PKα,4 µM
"HA-KD-RAC-PKα: kinase dead mutant, Lys179 changed to Ala",Increase in GSK3 activity on PP2A treatment,GSK3β,~12%
IGF-1,Activation of transfected RAC-PKα,RAC-PKα [2],46 fold and 38 fold
same,Half time for activation of transfected RAC-PKα,RAC-PKα [2],1 min
KKRNKTLSVA [peptide substrate with Lys at position n-3],Km,p70 S6 kinase,34 µM
same,p70 S6 kinase Vmax (U/mg),p70 S6 kinase; [20],760* U/mg
same,Phosphorylation by RAC-PKα,RAC-PKα [1],does not phosphorylate
same,Km,MAPKAP kinase-1; read-out: Km for phosphorylation by MAPKAP-K1,17 µM
same,MAPKAP kinase-1 Vmax (U/mg),MAPKAP kinase-1; [20],840* U/mg
KKRNRTLSVA,Km,p70 S6 kinase,1.5 µM
KPRTSSF [KPRTSSF],Km,RAC-PKα [1]; phosphorylation by RAC-PKα,> 500 µM
RAC-PKα (Homo sapiens),Km,[3],25 µM
same,Vmax,[3],230 U/mg
same,Km,[4],10 µM
same,Vmax,[4],230 U/mg
same,Km,[5],250 µM
same,Vmax,[5],265 U/mg
same,Km,[6],105 µM
same,Vmax,[6],160 U/mg
same,Km,[7],21 µM
same,Vmax,[7],300 U/mg
same,Km,[8],80 µM
same,Vmax,[8],308 U/mg
same,Km,[9],25 µM
same,Vmax,[9],233 U/mg
same,Km,[10],25 µM
same,Vmax,[10],215 U/mg
same,Km,[11],30 µM
same,Vmax,[11],300 U/mg
same,Km,[12],60 µM
same,Vmax,[12],163 U/mg
same,Km,[13],25 µM
same,Vmax,[13],273 U/mg
same,Km,[14],8 µM
same,Vmax,[14],278 U/mg
same,Km,[15],30 µM
same,Vmax,[15],365 U/mg
same,Km,[16],8 µM
same,Vmax,[16],305 U/mg
same,Km,[17],49 µM
same,Vmax,[17],114 U/mg
same,Km,[18],8 µM
same,Vmax,[18],385 U/mg
RFRGGSF,Km,RAC-PKα [1],105 µM
same,V (0.1 mM),RAC-PKα [1],55
same,Vmax (U/mg),RAC-PKα [1],345 U/mg
RPKTSSF [RPKTSSF],Km,RAC-PKα [1]; phosphorylation by RAC-PKα,> 500 µM
RPRASSF,Km,RAC-PKα [1],12 µM
same,V (0.1 mM),RAC-PKα [1],89
same,Vmax (U/mg),RAC-PKα [1],230 U/mg
RPRNSSF [RPRNSSF],Km,RAC-PKα [1]; phosphorylation by RAC-PKα,> 500 µM
RPRTASF,Km,RAC-PKα [1],20 µM
same,V (0.1 mM),RAC-PKα [1],83
same,Vmax (U/mg),RAC-PKα [1],213 U/mg
RPRTSS [RPRTSS],Km,RAC-PKα [1]; phosphorylation by RAC-PKα,> 500 µM
RPRTSSE [RPRTSSE],Km,RAC-PKα [1]; phosphorylation by RAC-PKα,> 500 µM
RPRTSSF [RPRTSSF],Km,RAC-PKα [1]; phosphorylation by RAC-PKα,5 µM
RPRTSTF [RPRTSTF],Km,RAC-PKα [1]; phosphorylation by RAC-PKα,30 µM
insulin: insulin from Novo-Nordisk,Increase in RAC-PK activity,RAC-PK,4.5 fold
same,Increase in 32P-labelling of GSK3-α and GSK3-β,GSK3,60-100%
same,Inhibition of GSK3,GSK3,40-50%
same,Half-time (t0.5) of activation of RAC-PK,RAC-PKα [19],1 min
same,Activation of transfected RAC-PKα,RAC-PKα [2],20 fold
same,Half time for activation of transfected RAC-PKα,RAC-PKα [2],1 min
B1,Km,RAC-PKα [1],5 µM
same,Vmax (U/mg),RAC-PKα [1],25 U/mg
